Measured values: patent US20090196872A1 (KIRIN BEER, published 2009)

Legend:
M2LTKGS peptide = M2LTKGS peptide (influenza A virus); test: peptide ELISA, avian flu M2 variants
M2DLTGS peptide = M2DLTGS peptide (influenza A virus); test: peptide ELISA, avian flu M2 variants

B1: human anti-M2 monoclonal antibody no. Z3G1 (recombinant IgG1 type Z3, CHO; ATCC PTA-5967) (antibody, V domains shown)
VH: QVQLVQSGAEVKKPGASVKVSCKASGYTFTSYGISWVRQAPGQGLEWMGWISAYNGNTNYAQKLQGRVTMTTDTSTSTAYMELRSLRSDDTAVYYCARAAAGGYFQHWGQGTLVTVSS
VL: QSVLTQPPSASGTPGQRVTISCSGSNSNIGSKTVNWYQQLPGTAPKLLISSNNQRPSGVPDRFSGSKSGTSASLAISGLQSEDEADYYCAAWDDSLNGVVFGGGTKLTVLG
M2LTKGS peptide
  binding result: binds
M2DLTGS peptide
  binding result: binds
